Laboratory results as given in patent US20050058651A1 (published 2005).

Molecular target: T1, rat hnRNP M4 expressed in P388D1 mouse macrophage cells by transient transfection of hnRNP M4/pBK-CMV (rat, UniProt Q62826 2-690)
T1 construct: also called pBK-CMV/hnRNP M4
T1 sequence: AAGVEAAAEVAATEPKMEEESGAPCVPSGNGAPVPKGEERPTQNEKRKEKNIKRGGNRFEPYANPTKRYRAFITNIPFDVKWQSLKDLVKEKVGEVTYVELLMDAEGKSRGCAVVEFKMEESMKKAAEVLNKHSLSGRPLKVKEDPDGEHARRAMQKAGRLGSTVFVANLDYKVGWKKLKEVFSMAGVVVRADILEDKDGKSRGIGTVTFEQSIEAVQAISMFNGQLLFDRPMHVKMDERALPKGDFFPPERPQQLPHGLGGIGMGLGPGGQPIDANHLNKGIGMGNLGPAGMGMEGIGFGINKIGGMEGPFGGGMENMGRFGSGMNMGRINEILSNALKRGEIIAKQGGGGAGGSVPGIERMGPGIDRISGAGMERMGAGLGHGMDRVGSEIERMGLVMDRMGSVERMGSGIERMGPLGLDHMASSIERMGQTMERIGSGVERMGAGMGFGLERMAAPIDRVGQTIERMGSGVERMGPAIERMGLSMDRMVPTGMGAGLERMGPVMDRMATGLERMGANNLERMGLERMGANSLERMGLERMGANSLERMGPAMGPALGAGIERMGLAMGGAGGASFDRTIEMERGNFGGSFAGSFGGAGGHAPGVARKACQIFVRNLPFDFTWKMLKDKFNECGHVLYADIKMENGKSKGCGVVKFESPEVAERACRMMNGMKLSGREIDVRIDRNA
Assay: 125I labeled CEA binding/uptake by P388D1 cells 48 h after transient transfection, compared with matching vector
Excerpt: To begin to elucidate the mechanism underlying the intracellular signaling associated with KC activation and CEA binding, the hnRNP M4 cDNA in the pBK-CMV expression vector was introduced into CEA non-responsive macrophage cell lines. The hnRNP M4 transcription in this system was driven by the CMV promoter. […] An approximately 5 times increase in CEA uptake was observed on transfecting […] of hnRNP M4/pBK-CMV plasmid. This fact implies that hnRNP M4 cDNA can initiate CEA binding in P388D1 […] macrophage cell line and can act as a receptor for CEA. […] At present, the reasons for lack of response by IC21 cells are not known.
Transient transfection of hnRNP M4 plasmid was carried out in P388D1 mouse lymphoid macrophage, IC21 mouse peritoneal and CRL2192 rat alveolar macrophage cell lines. As a positive control were used rat KC. The P388D1 cells were propagated in DMEM medium supplemented with 10% horse serum. The CRL 2192 cells were grown in F-12K medium (Kaighn's modification) supplemented with 15% FBS. The IC21 cells were grown in RPM1 1640 ATCC modified medium supplemented with 10% FBS. All cells were maintained at 37° C. in 5% CO₂ atmosphere. All tissue culture products were obtained from Life Technologies, USA. Cells for transfection were plated at 2-2.5.10⁵ cells per well in six well tissue culture clusters (Nunc products, Germany). […]

fold increase in CEA uptake (against vector-transfected cells): ~5 times
B1: carcinoembryonic antigen (CEA) (ligand, UniProt P06731 35-685, looked up)
chain: KLTIESTPFNVAEGKEVLLLVHNLPQHLFGYSWYKGERVDGNRQIIGYVIGTQQATPGPAYSGREIIYPNASLLIQNIIQNDTGFYTLHVIKSDLVNEEATGQFRVYPELPKPSISSNNSKPVEDKDAVAFTCEPETQDATYLWWVNNQSLPVSPRLQLSNGNRTLTLFNVTRNDTASYKCETQNPVSARRSDSVILNVLYGPDAPTISPLNTSYRSGENLNLSCHAASNPPAQYSWFVNGTFQQSTQELFIPNITVNNSGSYTCQAHNSDTGLNRTTVTTITVYAEPPKPFITSNNSNPVEDEDAVALTCEPEIQNTTYLWWVNNQSLPVSPRLQLSNDNRTLTLLSVTRNDVGPYECGIQNELSVDHSDPVILNVLYGPDDPTISPSYTYYRPGVNLSLSCHAASNPPAQYSWLIDGNIQQHTQELFISNITEKNSGLYTCQANNSASGHSRTTVKTITVSAELPKPSISSNNSKPVEDKDAVAFTCEPEAQNTTYLWWVNGQSLPVSPRLQLSNGNRTLTLFNVTRNDARAYVCGIQNSVSANRSDPVTLDVLYGPDTPIISPPDSSYLSGANLNLSCHSASNPSPQYSWRINGIPQQHTQVLFIAKITPNNNGTYACFVSNLATGRNNSIVKSITVSASGTSPGLSA
modifications: 125I label in the phage-lift and cell binding assays; unlabeled soluble CEA in the blot overlay
notes: also called soluble CEA; 125I labeled CEA
